Columns and labels:
[1] = STED immunofluorescence, THP-1-derived macrophages; conditions: glycan lost; control: overexpressed WT hPANX1
[2] = target: the molecule itself; assay: cryo-EM structure; single-particle cryo-EM of purified hPANX1 at about 8 mg/ml in 20 mM Hepes pH 7.4, 150 mM NaCl, 0.1% digitonin; C7 symmetry; 3.15 Å

B1: human Pannexin1 (hPANX1): N255Q (protein)
parent chain: MAIAQLATEYVFSDFLLKEPTEPKFKGLRLELAVDKMVTCIAVGLPLLLISLAFAQEISIGTQISCFSPSSFSWRQAAFVDSYCWAAVQQKNSLQSESGNLPLWLHKFFPYILLLFAILLYLPPLFWRFAAAPHICSDLKFIMEELDKVYNRAIKAAKSARDLDMRDGACSVPGVTENLGQSLWEVSESHFKYPIVEQYLKTKKNSNNLIIKYISCRLLTLIIILLACIYLGYYFSLSSLSDEFVCSIKSGILRNDSTVPDQFQCKLIAVGIFQLLSVINLVVYVLLAPVVVYTLFVPFRQKTDVLKVYEILPTFDVLHFKSEGYNDLSLYNLFLEENISEVKSYKCLKVLENIKSSGQGIDPMLLLTNLGMIKMDVVDGKTPMSAEMREEQGNQTAELQGMNIDSETKANNGEKNARQRLLDSSC
With B1 the localisation_or_trafficking [1] was “changes”.

B2: full-length human Pannexin1 with a Strep-tag II inserted after V172 (natural protein, UniProt Q96RD7 1-426, looked up)
chain: MAIAQLATEYVFSDFLLKEPTEPKFKGLRLELAVDKMVTCIAVGLPLLLISLAFAQEISIGTQISCFSPSSFSWRQAAFVDSYCWAAVQQKNSLQSESGNLPLWLHKFFPYILLLFAILLYLPPLFWRFAAAPHICSDLKFIMEELDKVYNRAIKAAKSARDLDMRDGACSVPGVTENLGQSLWEVSESHFKYPIVEQYLKTKKNSNNLIIKYISCRLLTLIIILLACIYLGYYFSLSSLSDEFVCSIKSGILRNDSTVPDQFQCKLIAVGIFQLLSVINLVVYVLLAPVVVYTLFVPFRQKTDVLKVYEILPTFDVLHFKSEGYNDLSLYNLFLEENISEVKSYKCLKVLENIKSSGQGIDPMLLLTNLGMIKMDVVDGKTPMSAEMREEQGNQTAELQGMNIDSETKANNGEKNARQRLLDSSC
modifications: N-linked glycan at N255 (two N-acetylglucosamine and eight mannose)
notes: Pannexin1 (PANX1), Homo sapiens, full length; Homo-heptamer; Met1 is absent from the deposited hPANX1-MD model; The termini and the intracellular linker of the model rest on a locally sharpened map and MD flexible fitting; also called hPANX1; PANX1
In the case of B2, the “stoichiometry N” value [2] is reported as 7.

Source: paper PMC8096850, “Structure of the full-length human Pannexin1 channel and insights into its role in pyroptosis” (Cell Discovery, 2021)
